Data published in US20090175860A1 (Novartis, published 2009).

Experiments:
[1] = molecular target: T1, full length human c-Met on cells (human, UniProt P08581 25-1390); experiment: flow cytometry, Fab titration on GTL-16 cells
T1 construct: whole, on cells; NCI-H441 for migration; A549 for autophosphorylation; also called human c-Met GTL-16; c-Met on NCI-H441 cells
Description: (§1) In order to further characterize the anti-c-Met antibodies, the affinity to full length human and cynomolgus c-Met is determined. GTL16, CHO cells overexpressing cynomolgus c-Met or rhesus 4 MBr-5 cells are washed, trypsinised, and suspended in PBS containing 3% FCS (3% FCS/PBS) at 4-C. 2-5×10⁵ cells/sample are resuspended in 140 μl of 3% FCS//PBS containing 5 μg/ml of purified anti-cMet Fabs or serial dilutions thereof. As a positive control 5 μg/ml of DO24 (mouse IgG2a), anti-human c-Met is used. The cells are incubated for 30-60 minutes at 4° C. before being pelleted by centrifugation for 2 min at 2000 rpm (716 g) at 4° C. and washed in 200 μl of in chilled 3% FCS/PBS. The cells are again pelleted by centrifugation and the PBS gently removed. Cells are resuspended in 100 μl of goat anti-human IgG (H+L) PE conjugated (Jackson Cat No. 109-116-088) diluted 1:200 in 3% FCS/0.02% NaN₃/PBS; For the positive control goat anti-mouse IgG (H+L)-PE conjugated (Jackson Cat No. 115-116-146) diluted 1:200 in 3% FCS/PBS is used. Samples are incubated in the dark for 30-60 min at 4° C. Following centrifugation and washing in 200 μl of 3% FCS/0.02%/NaN₃/PBS the cells are resuspended in 100 μl of 3% FCS/PBS and assayed using FACS-array or FACS-Calibur.

recombinant human c-Met [2] = molecular target: T2, recombinant human c-Met (human, UniProt P08581 25-932, limits assumed); experiment: SPR (BIAcore), c-Met amine-coupled on CM5 chip, Fab 16-500 nM as analyte
T2 construct: Soluble recombinant protein: immobilised on the CM5 chip in Biacore, in solution in the equilibrium titration; The precursor is cleaved into disulfide-linked alpha and beta subunits; also called Hepatocyte Growth Factor Receptor
Description: (§2) Using these clones, kinetic SPR analysis is performed on a CM5 chip (Biacore, Sweden) which had been coated with a density of ˜400 RU of either recombinant human c-Met, in 10 mM Na-acetate pH 4.5 using standard EDC-NHS amine coupling chemistry. […] PBS (136 mM NaCl, 2.7 mM KCl, 10 mM Na2HPO4 , 1.76 mM KH2PO4 pH 7.4) is used as the running buffer. The Fab preparations are applied in concentration series of 16-500 nM at a flow rate of 20 μl/min. Association phase is set to 60 s and dissociation phase to 120 s.

[3] = molecular target: T3, rhesus c-Met on 4MBr-5 cells (rhesus); experiment: flow cytometry, Fab titration on rhesus 4MBr-5 cells
T3 construct: whole, on cells
Description: as §1

[4] = molecular target: T4, cynomolgus c-Met on CHO cells (cynomolgus, UniProt A0A2K5UM36 25-1381, The natural precursor is cleaved into disulfide-linked alpha and beta subunits. It is given here as one mature chain, following the entry's CHAIN feature.); experiment: flow cytometry, Fab on CHO-cyno c-Met cells
T4 construct: also called cyno c-Met; CHO-cMet cyno
Description: as §1

[5] = molecular target: T4, cynomolgus c-Met on CHO cells; experiment: flow cytometry, Fab titration on CHO cells overexpressing cynomolgus c-Met
Description: as §1

recombinant human c-Met [6] = molecular target: T2, recombinant human c-Met; experiment: SPR (BIAcore), Fab on immobilised human c-Met
Description: as §2

[7] = molecular target: T1, full length human c-Met on cells; experiment: flow cytometry, Fab on GTL-16 cells
Description: as §1

[8] = molecular target: T4, cynomolgus c-Met on CHO cells; experiment: flow cytometry, Fab on CHO-cyno c-Met cells; remark: listed apart in the source
Description: as §1
(§3) Using the assay conditions described above, the affinities for the affinity-optimized anti-c-Met Fabs are determined in solution. Affinities are determined for antibodies with KDs below 4.6 pM to human c-Met. FACs based analysis of binding to cyno-c-Met expressed on CHO cells, as described above, is carried out.

recombinant human c-Met [9] = molecular target: T2, recombinant human c-Met; experiment: solution equilibrium titration (SET), ECL detection (BioVeris), Fab with human c-Met in solution
Description: Electrochemiluminescence (ECL) based affinity determination in solution and data evaluation are basically performed as described by Haenel et al., 2005. A constant amount of Fab is equilibrated with different concentrations (serial 3ⁿ dilutions) of human c-Met (4 nM starting concentration) in solution. Biotinylated human c-Met coupled to paramagnetic beads (M-280 Streptavidin, Dynal), and BV-Tag™ (BioVeris Europe, Witney, Oxfordshire, UK) labelled anti-human (Fab)′₂ (Dianova) is added and the mixture incubated for 30 min. Subsequently, the concentration of unbound Fab is quantified by ECL detection using the M-SERIES® 384 analyzer (BioVeris Europe).
as §3

T2 sequence (P08581 25-932 limits assumed): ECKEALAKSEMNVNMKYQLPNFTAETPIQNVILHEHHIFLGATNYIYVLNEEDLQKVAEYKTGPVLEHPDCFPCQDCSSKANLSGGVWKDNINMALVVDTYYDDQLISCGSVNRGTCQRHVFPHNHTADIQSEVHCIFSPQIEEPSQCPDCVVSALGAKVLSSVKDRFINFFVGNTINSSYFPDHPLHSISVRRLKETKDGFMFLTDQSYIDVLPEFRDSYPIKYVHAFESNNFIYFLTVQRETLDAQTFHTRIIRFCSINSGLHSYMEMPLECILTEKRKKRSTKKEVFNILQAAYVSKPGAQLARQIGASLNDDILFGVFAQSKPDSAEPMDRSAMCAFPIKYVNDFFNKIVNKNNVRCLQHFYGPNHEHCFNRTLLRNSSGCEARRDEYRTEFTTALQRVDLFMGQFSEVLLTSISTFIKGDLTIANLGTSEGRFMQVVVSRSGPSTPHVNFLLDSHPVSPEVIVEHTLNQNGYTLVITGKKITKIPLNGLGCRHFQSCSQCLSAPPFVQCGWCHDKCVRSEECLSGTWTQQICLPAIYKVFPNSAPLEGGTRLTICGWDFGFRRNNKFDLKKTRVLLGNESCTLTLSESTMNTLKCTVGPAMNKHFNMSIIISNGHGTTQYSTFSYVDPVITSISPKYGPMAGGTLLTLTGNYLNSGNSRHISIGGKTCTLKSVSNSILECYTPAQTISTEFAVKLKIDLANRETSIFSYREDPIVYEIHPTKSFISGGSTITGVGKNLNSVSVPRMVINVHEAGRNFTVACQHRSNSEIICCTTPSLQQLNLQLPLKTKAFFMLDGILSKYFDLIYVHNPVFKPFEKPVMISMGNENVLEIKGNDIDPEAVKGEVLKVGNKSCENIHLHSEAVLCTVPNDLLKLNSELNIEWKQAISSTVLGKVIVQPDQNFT
T4 sequence (A0A2K5UM36 entry or part of it limits assumed): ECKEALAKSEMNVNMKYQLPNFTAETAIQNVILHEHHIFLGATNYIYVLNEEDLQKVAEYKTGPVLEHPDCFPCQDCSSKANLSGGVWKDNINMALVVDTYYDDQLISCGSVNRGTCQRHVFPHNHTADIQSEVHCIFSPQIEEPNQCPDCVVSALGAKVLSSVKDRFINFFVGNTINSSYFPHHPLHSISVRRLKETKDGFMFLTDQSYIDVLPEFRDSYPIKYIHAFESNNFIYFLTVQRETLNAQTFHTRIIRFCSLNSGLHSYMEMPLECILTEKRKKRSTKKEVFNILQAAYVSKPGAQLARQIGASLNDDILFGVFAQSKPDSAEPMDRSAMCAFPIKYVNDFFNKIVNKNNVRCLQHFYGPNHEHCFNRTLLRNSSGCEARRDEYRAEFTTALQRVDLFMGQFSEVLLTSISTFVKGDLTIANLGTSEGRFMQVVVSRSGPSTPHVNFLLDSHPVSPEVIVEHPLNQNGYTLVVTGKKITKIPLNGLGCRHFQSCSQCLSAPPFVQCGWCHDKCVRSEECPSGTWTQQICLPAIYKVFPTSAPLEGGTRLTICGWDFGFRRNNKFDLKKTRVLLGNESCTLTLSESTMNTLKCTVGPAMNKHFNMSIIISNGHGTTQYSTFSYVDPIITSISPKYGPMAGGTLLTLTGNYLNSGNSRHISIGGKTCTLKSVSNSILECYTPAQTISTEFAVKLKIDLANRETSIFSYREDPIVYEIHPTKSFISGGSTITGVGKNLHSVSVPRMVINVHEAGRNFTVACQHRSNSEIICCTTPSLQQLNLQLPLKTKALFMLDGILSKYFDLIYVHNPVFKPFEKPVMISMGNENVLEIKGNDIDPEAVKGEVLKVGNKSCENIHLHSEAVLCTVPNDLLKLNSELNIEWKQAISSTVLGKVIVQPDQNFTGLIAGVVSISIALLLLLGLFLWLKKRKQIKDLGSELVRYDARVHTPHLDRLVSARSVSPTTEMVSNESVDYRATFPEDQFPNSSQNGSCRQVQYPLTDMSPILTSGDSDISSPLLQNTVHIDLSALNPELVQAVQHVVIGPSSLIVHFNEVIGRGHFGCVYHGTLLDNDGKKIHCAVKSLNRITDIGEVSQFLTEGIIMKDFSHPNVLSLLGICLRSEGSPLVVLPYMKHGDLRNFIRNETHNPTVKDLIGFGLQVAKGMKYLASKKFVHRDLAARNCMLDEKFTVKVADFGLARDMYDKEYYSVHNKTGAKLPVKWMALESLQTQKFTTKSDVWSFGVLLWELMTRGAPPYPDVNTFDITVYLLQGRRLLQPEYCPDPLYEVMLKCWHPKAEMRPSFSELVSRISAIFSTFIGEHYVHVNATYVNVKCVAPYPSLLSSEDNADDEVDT
T1 sequence (P08581 25-1390): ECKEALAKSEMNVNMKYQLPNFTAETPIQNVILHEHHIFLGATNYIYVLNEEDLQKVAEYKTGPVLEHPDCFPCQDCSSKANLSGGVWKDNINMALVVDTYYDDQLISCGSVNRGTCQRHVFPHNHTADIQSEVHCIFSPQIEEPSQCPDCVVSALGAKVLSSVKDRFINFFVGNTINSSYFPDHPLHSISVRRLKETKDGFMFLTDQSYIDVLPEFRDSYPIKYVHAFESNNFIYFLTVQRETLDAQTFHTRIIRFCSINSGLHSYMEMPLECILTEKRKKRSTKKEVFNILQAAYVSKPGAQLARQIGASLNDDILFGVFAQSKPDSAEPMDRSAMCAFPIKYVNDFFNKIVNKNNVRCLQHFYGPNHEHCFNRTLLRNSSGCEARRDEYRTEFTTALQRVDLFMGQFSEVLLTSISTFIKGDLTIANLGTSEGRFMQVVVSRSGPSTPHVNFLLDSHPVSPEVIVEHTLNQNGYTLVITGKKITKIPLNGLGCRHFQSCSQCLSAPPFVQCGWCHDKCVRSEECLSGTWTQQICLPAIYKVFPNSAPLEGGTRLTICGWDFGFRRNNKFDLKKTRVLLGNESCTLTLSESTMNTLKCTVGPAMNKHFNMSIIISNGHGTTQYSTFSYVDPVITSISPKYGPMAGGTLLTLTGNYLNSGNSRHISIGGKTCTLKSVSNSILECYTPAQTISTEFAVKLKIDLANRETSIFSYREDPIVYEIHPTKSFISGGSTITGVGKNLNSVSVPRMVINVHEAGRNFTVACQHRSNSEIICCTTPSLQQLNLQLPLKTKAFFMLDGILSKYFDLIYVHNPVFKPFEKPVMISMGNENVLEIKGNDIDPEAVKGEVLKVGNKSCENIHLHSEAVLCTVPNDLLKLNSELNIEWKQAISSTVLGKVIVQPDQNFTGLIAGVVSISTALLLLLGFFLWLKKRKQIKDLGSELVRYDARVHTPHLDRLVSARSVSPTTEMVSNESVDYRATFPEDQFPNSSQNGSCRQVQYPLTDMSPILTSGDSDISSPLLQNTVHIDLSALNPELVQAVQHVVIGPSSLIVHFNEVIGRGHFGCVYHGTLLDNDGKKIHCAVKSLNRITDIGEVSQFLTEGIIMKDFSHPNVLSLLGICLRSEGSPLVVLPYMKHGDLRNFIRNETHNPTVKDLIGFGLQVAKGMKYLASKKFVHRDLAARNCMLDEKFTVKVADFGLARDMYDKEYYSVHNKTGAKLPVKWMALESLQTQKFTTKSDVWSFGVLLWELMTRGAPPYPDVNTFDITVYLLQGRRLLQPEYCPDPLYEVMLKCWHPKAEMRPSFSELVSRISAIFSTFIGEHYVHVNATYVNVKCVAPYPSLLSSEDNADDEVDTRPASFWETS

Kd [1] [nM]	Kd (recombinant human c-Met [2]) [nM]	Kd [3] [nM]	Kd [4] [nM]	Kd [5] [nM]	Kd (recombinant human c-Met [6]) [nM]	Kd [7] [nM]	Kd [8] [nM]	Kd (recombinant human c-Met [9]) [nM]	Binder
–	–	–	–	–	–	–	0.0003	0.0021	05098 (affinity-improved anti-cMet Fab antibody) (Fab, V domains shown) VH: QVQLVQSGAEVKKPGSSVKVSCKASGGTFSSYAISWVRQAPGQGLEWMGGIDPFGTANYAQKFQGRVTITADESTSTAYMELSSLRSEDTAVYYCARVYQDVWGQGTLVTVSS VL: DIVMTQSPDSLAVSLGERATINCRSSQSILYGINNNFLGWYQQKPGQPPKLLIYWASTRESGVPDRFSGSGSGTDFTLTISSLQAEDVAVYYCLQYSDEPWTFGQGTKVEIKR
–	–	–	–	–	–	–	0.00029	0.0046	05185 (affinity-improved anti-cMet Fab antibody) (Fab, V domains shown) VH: QVQLVQSGAEVKKPGSSVKVSCKASGGTFSSYAISWVRQAPGQGLEWMGGIDPIMGTEYAQKFQGRVTITADESTSTAYMELSSLRSEDTAVYYCARVYQDVWGQGTLVTVSS VL: DIVMTQSPDSLAVSLGERATINCRSSQSILYGINNNFLGWYQQKPGQPPKLLIYWASTRESGVPDRFSGSGSGTDFTLTISSLQAEDVAVYYCQQYAYEPNTFGQGTKVEIKR

Continued, binder first:

Binder	Kd [1] [nM]	Kd (recombinant human c-Met [2]) [nM]	Kd [3] [nM]	Kd [4] [nM]	Kd [5] [nM]	Kd (recombinant human c-Met [6]) [nM]	Kd [7] [nM]	Kd [8] [nM]	Kd (recombinant human c-Met [9]) [nM]
04536 (parental anti-cMet Fab antibody) (Fab, V domains shown, carries two C-terminal tags (FLAG and 6xHis)) VH: QVQLVQSGAEVKKPGASVKVSCKASGYTFTGYYMNWVRQAPGQGLEWMGIINPWTGNTNYAQKFQGRVTMTRDTSISTAYMELSSLRSEDTAVYYCARDPGFFYYTPSDLWGQGTLVTVSS VL: DIELTQPPSVSVAPGQTARISCSGDSIGNKYVHWYQQKPGQAPVLVIYADSDRPSGIPERFSGSNSGNTATLTISGTQAEDEADYYCQAYDSSMLRVFGGGTKLTVLG	0.4	1.4	0.1	229	0.5	1.4	1.7	–	–
04687 (parental anti-cMet Fab antibody) (Fab, V domains shown, carries two C-terminal tags (FLAG and 6xHis)) VH: QVQLVQSGAEVKKPGSSVKVSCKASGGTFSSYAISWVRQAPGQGLEWMGGIDPFGTANYAQKFQGRVTITADESTSTAYMELSSLRSEDTAVYYCARVYQDVWGQGTLVTVSS VL: DIVMTQSPDSLAVSLGERATINCRSSQSILYGINNNFLGWYQQKPGQPPKLLIYWASTRESGVPDRFSGSGSGTDFTLTISSLQAEDVAVYYCQQYYNHPHTFGQGTKVEIKR	5.7	0.8	1.2	1.3	1.1	0.8	4	–	–
05097 (affinity-improved anti-cMet Fab antibody) (Fab, V domains shown) VH: QVQLVQSGAEVKKPGSSVKVSCKASGGTFSSYAISWVRQAPGQGLEWMGGIDPFGTANYAQKFQGRVTITADESTSTAYMELSSLRSEDTAVYYCARVYQDVWGQGTLVTVSS VL: DIVMTQSPDSLAVSLGERATINCRSSQSILYGINNNFLGWYQQKPGQPPKLLIYWASTRESGVPDRFSGSGSGTDFTLTISSLQAEDVAVYYCQQYAFGWTFGQGTKVEIKR	–	–	–	–	–	–	–	0.00068	0.0036
